# Assay results as given in patent publication US20080194701A1, “Bifunctional Enzyme with Y-Glutamylcysteine Synthetase and Glutathione Synthetase Activity and Uses Thereof” (priority 2004, published 2008).
# T1: S. agalactiae γ-GCS-GS (Streptococcus agalactiae serotype V, UniProt Q8DXM9)
# T1 sequence (Q8DXM9 1-750): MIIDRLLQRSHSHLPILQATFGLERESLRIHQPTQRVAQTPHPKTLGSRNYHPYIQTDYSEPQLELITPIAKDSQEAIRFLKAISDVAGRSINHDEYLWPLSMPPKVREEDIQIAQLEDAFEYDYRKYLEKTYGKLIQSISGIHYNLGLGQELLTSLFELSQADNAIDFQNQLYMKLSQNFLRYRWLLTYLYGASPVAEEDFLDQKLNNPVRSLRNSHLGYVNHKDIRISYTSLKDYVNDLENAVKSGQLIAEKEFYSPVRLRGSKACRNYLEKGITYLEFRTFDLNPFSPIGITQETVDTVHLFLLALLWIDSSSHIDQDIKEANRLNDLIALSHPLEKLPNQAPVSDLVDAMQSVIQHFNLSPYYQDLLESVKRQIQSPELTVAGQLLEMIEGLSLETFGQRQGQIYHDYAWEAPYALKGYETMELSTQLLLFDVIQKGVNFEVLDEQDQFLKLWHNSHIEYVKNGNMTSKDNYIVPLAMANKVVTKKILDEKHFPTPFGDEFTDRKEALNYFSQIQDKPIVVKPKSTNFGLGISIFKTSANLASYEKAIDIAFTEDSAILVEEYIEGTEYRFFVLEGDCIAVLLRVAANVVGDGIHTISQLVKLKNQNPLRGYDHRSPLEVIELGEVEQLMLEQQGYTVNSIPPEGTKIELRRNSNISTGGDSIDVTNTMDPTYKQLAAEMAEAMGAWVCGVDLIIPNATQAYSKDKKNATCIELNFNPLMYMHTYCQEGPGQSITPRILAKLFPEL
# T2: Human γ-GCS (Homo sapiens, UniProt P48506)
# T2 sequence (P48506 1-637): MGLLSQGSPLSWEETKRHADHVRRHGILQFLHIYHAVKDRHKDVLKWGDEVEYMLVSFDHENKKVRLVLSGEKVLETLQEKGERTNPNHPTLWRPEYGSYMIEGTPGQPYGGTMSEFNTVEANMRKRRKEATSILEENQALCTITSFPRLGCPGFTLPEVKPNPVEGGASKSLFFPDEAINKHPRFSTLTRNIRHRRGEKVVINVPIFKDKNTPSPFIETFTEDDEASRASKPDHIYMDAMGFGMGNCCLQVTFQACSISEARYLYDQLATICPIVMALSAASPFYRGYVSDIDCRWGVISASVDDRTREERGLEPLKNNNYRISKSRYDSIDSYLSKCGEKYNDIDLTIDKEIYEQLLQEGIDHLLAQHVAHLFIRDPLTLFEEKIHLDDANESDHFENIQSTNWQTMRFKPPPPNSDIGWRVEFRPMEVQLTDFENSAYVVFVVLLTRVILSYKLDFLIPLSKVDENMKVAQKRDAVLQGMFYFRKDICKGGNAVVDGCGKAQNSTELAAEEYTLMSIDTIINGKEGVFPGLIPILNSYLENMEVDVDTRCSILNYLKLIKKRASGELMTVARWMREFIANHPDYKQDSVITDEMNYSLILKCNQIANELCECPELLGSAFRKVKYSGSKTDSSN
# T2 sequence (P48507 1-274 partner): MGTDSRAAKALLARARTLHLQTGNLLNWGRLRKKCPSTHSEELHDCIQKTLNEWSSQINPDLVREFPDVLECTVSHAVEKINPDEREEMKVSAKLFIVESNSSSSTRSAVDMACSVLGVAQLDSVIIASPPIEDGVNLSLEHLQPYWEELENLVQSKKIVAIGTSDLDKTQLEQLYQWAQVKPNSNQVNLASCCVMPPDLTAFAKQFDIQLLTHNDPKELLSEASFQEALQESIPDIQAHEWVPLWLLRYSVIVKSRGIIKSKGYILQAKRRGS
# How the values were obtained:
# N[C@@H](CS)C(=O)O = experiment: purified protein, by the assay type; settings: other: substrate Km, γ-GCS activity
# [1] = tested on: N[C@@H](CCC(=O)N[C@@H](CS)C(=O)O)C(=O)O; experiment: purified protein, by the assay type; settings: other: substrate Km, GS activity
# [2] = target: S. agalactiae γ-glutamylcysteine synthetase-glutathione synthetase (γ-GCS-GS) with an N-terminal His8-tag (Streptococcus agalactiae) (UniProt Q8DXM9); experiment: cell-based or functional assay
# [3] = tested on: urinary tract infection caused by E. faecalis; experiment: Treatment of urinary tract infection in a patient; assay type: in vivo, human
# Text: A person weighing 50 kg presents to their physician with a urinary tract infection caused by E. faecalis. […] Two months later they return with a recurrence of the urinary tract infection due to E. faecalis.
# [4] = tested on: vaginal colonization with S. agalactiae (Group B Streptococcus); settings: one 500 mg capsule by mouth every 6 hours from 2 days before due date
# Text: A person who is allergic to penicillin is seen for prenatal screening prior to delivery of their first child.
# S. agalactiae γ-GCS-GS = target: T1, S. agalactiae γ-GCS-GS; experiment: γ-GCS activity assay based on ADP formation, S. agalactiae γ-GCS-GS; assay type: biochemical; design: corresponded to full-length S. agalactiae γ-GCS-GS with an N-terminal His8-tag; made in house; host or cells: E. coli SG13009 with pQE30-gshAB plus pREP4 or pRARE
# Procedure: In Table 1, a unit was defined as the amount of enzyme activity required to catalyze the formation of 1 μmol of product per hour. Specific activity was shown as units per mg protein. Activity was determined at 37° C. based on ADP formation in reaction mixtures containing L-glutamate and L-cysteine and using pyruvate kinase and lactate dehydrogenase to couple ADP formation to NADH oxidation, which was monitored at 340 nm.
# Exp. Purif. 13, 268-276 (1998).
# At set time points ranging from one to 30 minutes, 5 μl aliquots were removed and assayed for residual enzyme activity using the standard γ-GCS assay based on ADP formation.
# Human γ-GCS = target: T2, Human γ-GCS; settings: cited from earlier work
# E. coli γ-GCS = E. coli γ-GCS (Escherichia coli, UniProt P0A6W9); settings: cited from earlier work
# [5] = substrate: N[C@@H](CS)C(=O)O; experiment: γ-GCS activity assay based on ADP formation, S. agalactiae γ-GCS-GS; assay type: biochemical, Streptococcus agalactiae; settings: other: substrate Km, pH 8.2, 37.0 °C
# [6] = substrate: NCC(=O)O; experiment: cells, lysate or membranes named; settings: other: substrate Km, GS activity; pH 7.4
# [7] = substrate: CC[C@H](N)C(=O)OC(=O)CC[C@H](N)C(=O)O; experiment: cells, lysate or membranes named; settings: other: substrate Km, GS activity; pH 7.4
# [8] = substrate: N[C@@H](CCC(=O)N[C@@H](CS)C(=O)O)C(=O)O; experiment: cells, lysate or membranes named; settings: other: substrate Km, GS activity; pH 7.4
# E. faecalis γ-GCS-GS [9] = target: T3, E. faecalis γ-GCS-GS (Enterococcus faecalis, UniProt Q82ZG8); experiment: γ-GCS activity of E. faecalis γ-GCS-GS
# E. faecalis γ-GCS-GS [10] = target: T3, E. faecalis γ-GCS-GS; experiment: GS activity of E. faecalis γ-GCS-GS; settings: purified enzyme
# E. coli γ-GCS, sequence (P0A6W9 whole entry): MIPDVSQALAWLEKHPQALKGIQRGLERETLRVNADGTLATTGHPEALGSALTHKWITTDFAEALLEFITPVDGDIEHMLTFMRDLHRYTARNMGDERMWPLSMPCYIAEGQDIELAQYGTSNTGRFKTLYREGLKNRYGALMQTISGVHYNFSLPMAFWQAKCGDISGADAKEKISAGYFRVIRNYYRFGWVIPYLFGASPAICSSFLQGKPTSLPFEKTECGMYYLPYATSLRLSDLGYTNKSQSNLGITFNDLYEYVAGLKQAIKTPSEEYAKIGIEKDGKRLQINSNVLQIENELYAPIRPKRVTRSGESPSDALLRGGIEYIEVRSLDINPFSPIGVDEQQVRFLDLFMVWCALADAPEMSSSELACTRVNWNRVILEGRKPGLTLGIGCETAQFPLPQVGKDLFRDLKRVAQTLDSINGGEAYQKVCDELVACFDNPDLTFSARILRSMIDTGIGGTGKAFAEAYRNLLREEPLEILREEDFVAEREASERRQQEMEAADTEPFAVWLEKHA
molecule,measurement,setting,value
E. faecalis γ-GCS-GS (Enterococcus faecalis V583),Km,N[C@@H](CS)C(=O)O,192 ± 14 µM
same,Km,[1],4300 ± 50 µM
Glutathione (L-γ-glutamyl-L-cysteinylglycine) (peptide),inhibition of γ-GCS activity,[2],< 5%
"CCCC[S@](=N)(=O)CC[C@H](N)C(=O)O [L-S—BSO, L-buthionine-S-sulfoximine, reference compound]",outcome of infection,[3]; one 500 mg capsule by mouth every 6 hours for two days,without resolution of the infection
same,outcome of infection,"[3]; two 500 mg capsules every 6 hours, fourth day",urine is free of detectable bacteria
same,outcome of colonization,[4],no S. agalactiae bacteria are detected
same,Kd,S. agalactiae γ-GCS-GS,2800 ± 300 µM
same,Ki,S. agalactiae γ-GCS-GS,4900 ± 200 µM
same,kinact,S. agalactiae γ-GCS-GS,0.00217 s⁻¹
same,Kd,Human γ-GCS,25 µM
same,Ki,Human γ-GCS,25 µM
same,kinact,Human γ-GCS,3.9 min⁻¹
same,t1/2,Human γ-GCS; half-life for inactivation,0.183 min
same,Kd,E. coli γ-GCS,66 µM
same,Ki,E. coli γ-GCS,66 µM
same,kinact,E. coli γ-GCS,~0.30 min⁻¹
same,t1/2,E. coli γ-GCS; half-life for inactivation,2.3 min
"S. agalactiae γ-GCS-GS (Streptococcus agalactiae 2603V/R) (protein, corresponded to full-length S. agalactiae γ-GCS-GS with an N-terminal His8-tag; made in house; host or cells: E. coli SG13009 with pQE30-gshAB plus pREP4 or pRARE) MIIDRLLQRSHSHLPILQATFGLERESLRIHQPTQRVAQTPHPKTLGSRNYHPYIQTDYSEPQLELITPIAKDSQEAIRFLKAISDVAGRSINHDEYLWPLSMPPKVREEDIQIAQLEDAFEYDYRKYLEKTYGKLIQSISGIHYNLGLGQELLTSLFELSQADNAIDFQNQLYMKLSQNFLRYRWLLTYLYGASPVAEEDFLDQKLNNPVRSLRNSHLGYVNHKDIRISYTSLKDYVNDLENAVKSGQLIAEKEFYSPVRLRGSKACRNYLEKGITYLEFRTFDLNPFSPIGITQETVDTVHLFLLALLWIDSSSHIDQDIKEANRLNDLIALSHPLEKLPNQAPVSDLVDAMQSVIQHFNLSPYYQDLLESVKRQIQSPELTVAGQLLEMIEGLSLETFGQRQGQIYHDYAWEAPYALKGYETMELSTQLLLFDVIQKGVNFEVLDEQDQFLKLWHNSHIEYVKNGNMTSKDNYIVPLAMANKVVTKKILDEKHFPTPFGDEFTDRKEALNYFSQIQDKPIVVKPKSTNFGLGISIFKTSANLASYEKAIDIAFTEDSAILVEEYIEGTEYRFFVLEGDCIAVLLRVAANVVGDGIHTISQLVKLKNQNPLRGYDHRSPLEVIELGEVEQLMLEQQGYTVNSIPPEGTKIELRRNSNISTGGDSIDVTNTMDPTYKQLAAEMAEAMGAWVCGVDLIIPNATQAYSKDKKNATCIELNFNPLMYMHTYCQEGPGQSITPRILAKLFPEL",Km,[5],160 ± 9 μM μM
same,Vmax,[5],1126 ± 21 units/mg
same,Km,[6],6 ± 0.5 mM mM
same,Vmax,[6],2326 ± 584 units/mg
same,Km,[7],11.5 ± 1.5 mM mM
same,Vmax,[7],2648 ± 597 units/mg units/mg
same,Km,[8],3.9 ± 0.5 mM mM
same,Vmax,[8],2264 ± 896 units/mg units/mg
"E. faecalis γ-GCS-GS: bifunctional γ-GCS-GS enzyme of E. faecalis (gshAB, EF3089; SEQ ID NO:12) expressed in E. coli (protein, listed as Enterococcus faecalis) MNYRELMQKKNVRPYVLMARFGLEKENQRSTREGLLATTEHPTVFGNRSYHPYIQTDFSETQLELITPVANSGTEMLRFLDAIHDVARRSIPEDEMLWPLSMPPQLPTKDEEIKIAKLDQYDAVLYRRYLAKEYGKRKQMVSGIHFNFEYDQALIQQLYDEQSEVTDCKQFKTKVYMKVARNFLRYRWLITYLFGASPVSEDRYFRVYDDQPQEPVRSIRNSTYGYRNHDNVKVSYASLERYLEDIHRMVENGLLSEEKEFYAPVRLRGGKQMSDLPKTGIRYIELRNLDLNPFSRLGIVEDTVDFLHYFMLYLLWTDEKEEADEWVKTGDIFNEQVALGHPHETIKLIAEGDRIFSEMIDMLDALGIRKGKEVVGKYYQQLRNPQDTVSGKMWTIIQENSNSELGNIFGNQYQSMAFERPYQLAGFREMELSTQIFLFDAIQKGLEIEILDEQEQFLKLQHGEHIEYVKNANMTSKDNYVVPLIMENKTVTKKILSAAGFHVPGGEEFSSFIEAQEAHLRYANKAFVVKPKSTNYGLGITIFKEGASLEDFTEALRIAFKEDTAVLIEEFLPGTEYRFFVLDNDVKAIMLRVPANVTGDGKHTVEELVAAKNSDPLRGTNHRAPLELIQLNDLEKLMLKEQGLTIYSVPEKEQIVYLRENSNVSTGGDSIDMTDVIDDSYKQIAIEAVAALGAKICGIDLIIPDKDVKGTRDSLTYGIIEANFNPAMHMHVYPYAGQGRRLTMDVLKLLYPEVVQ",ratio of activities (γ-GCS to GS),E. faecalis γ-GCS-GS [9],about 0.23
same,γ-GCS specific activity,E. faecalis γ-GCS-GS [9]; purified enzyme,240 units/mg
same,GS specific activity,E. faecalis γ-GCS-GS [10],2297 units/mg
